# Earlier results in publication PMC4621241.
# Target: MetQ (Escherichia coli) (UniProt P28635)
# Sequence (P28635 23-271): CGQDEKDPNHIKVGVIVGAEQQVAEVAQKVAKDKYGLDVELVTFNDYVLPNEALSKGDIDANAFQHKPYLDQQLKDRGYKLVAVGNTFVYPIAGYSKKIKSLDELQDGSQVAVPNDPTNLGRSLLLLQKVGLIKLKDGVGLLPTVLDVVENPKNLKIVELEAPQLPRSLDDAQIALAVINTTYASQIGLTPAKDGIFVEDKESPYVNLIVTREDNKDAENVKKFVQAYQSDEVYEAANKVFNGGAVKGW
# Sequence of MetNI (P30750 whole entry): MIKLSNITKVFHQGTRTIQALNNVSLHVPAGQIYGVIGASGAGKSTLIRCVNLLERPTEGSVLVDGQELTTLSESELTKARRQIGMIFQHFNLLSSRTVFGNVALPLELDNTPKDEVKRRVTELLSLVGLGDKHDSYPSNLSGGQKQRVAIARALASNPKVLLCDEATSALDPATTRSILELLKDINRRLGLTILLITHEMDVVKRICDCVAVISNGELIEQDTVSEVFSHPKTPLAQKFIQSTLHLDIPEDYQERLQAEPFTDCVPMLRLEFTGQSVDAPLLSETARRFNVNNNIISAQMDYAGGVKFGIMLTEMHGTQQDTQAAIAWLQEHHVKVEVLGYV
# Sequence of MetNI (P31547 whole entry, further chain): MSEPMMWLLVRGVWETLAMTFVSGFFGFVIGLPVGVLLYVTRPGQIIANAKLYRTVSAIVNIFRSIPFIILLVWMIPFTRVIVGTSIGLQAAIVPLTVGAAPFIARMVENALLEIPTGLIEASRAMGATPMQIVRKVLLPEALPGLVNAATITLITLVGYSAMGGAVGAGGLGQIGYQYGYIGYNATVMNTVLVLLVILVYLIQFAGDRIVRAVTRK
substance,measurement,value
MetNI (from UniProt P30750),Kd,74 µM
